Assay: label from the status in PepcDB records

| Sequence | protein production |
| --- | --- |
| MFVRSHCLEVTNLRKWFYYFNRRNKRMQWLKVILAGFIEIIWVTGLDQAHSLFTWIFTLFFIALSFFLVIDASKHLPVGTVYAFFVGIGAVGTVLVDMIFFNQPFTFTKIFLIMTLILGIIGLKLTTDATKEGR | failed |
| MFWDNLTVAAKFFIEISVELTILFIGITFLVGLSQEYVPDETIKRALGGRNKVIGSILGAGFGAITPFCSCSTIPLLLGMLKAGAPFAAAMAFLFSSPLLNPVIISLFVILLGWKVTALYFVVVFMSTIAIGLLLDWLGFSNQIKPVAVVRNRCDCEQDTNAKSRIQRSAVFAFSLFRQLMPYLLLGAGIGAFIHGFVPTEVITRVAGPSNPLAVPVAAIIGVPIYIRAETMIPIGLALIKKGMSVGAVLALIIGGAGASIPELTLLSSIFKKRLLTAFVITVFSIAVIAGYLANLLTL | failed |
| MGAIPKTGTISPEQKDSQEKNLFQKIWSWEIGVIPLPLYTVLAVIIILAAYYNELPANMLGGFAIIMILGVFLGDIGQRIPILKDIGGPAILSLFVPSFLVFYNVLNSTSLDAVTNLMKTSNFLYFYIACLVVGSILGMNRIVLIQGFIRMFVPLVAGTIAAVAAGILVGFIFGYSAYDSFFFVVVPIIAGGIGEGILPLSIAYSQILGSSADVFVSQLVPAAIIGNVFAIICAALMKKLGDKRPDLNGNGRLVKSKKANEIFNQKEAEAKIDFKLMGAGVLLACTFFIFGGLLEKFIFIPGAILMIISAAAVKYANILPKKMEEGAYQLYKFISSSFTWPLMVGLGILFIPLDDVASVISIPFVIICISVVIAMIGSGYFVGKLMNMYPVESAIVTCCHSGLGGTGDVAILSASGRMGLMPFAQISTRLGGAGTVICATVLLRFFTS | failed |
| MGARAPFAVAGRGEIGRGQQGQAQPGGMMRALALALLLWPACAAAEFFTLKGHGGPVMGIAVGPEGQIATASFDNSVGLWTGRAPHWFEGHEAAVNTVAFQGGVLYSAGDDFTLRRWPEGTILGRHKGKITGLALSETLAATASWDGTIGLWPLDSRAPRSLDAASGVNAVAFSPDGTLLYSAGMDGVLRLWDVASGSELRQITRHGFGINEIVLNDADGWLAYGAVDGVTRILDLATGAERDFTLDRRPVLALALSPDRSQLAVGDGEGYIMVIDTASWRIARDFRATLRGPVWALAFSPDGANIHAGGIDDTMYSWPVASLSEHGKMASGERSFLKDPDQMDNGERQFARKCSICHALTPEGGRRAGPTLYRVFGRRAGTLPGYLYSDTLAGSDIVWTEESINSLFDLGPDHYIPGSKMPMQRITGAQDRADLIAYLRRATLAKESP | failed |
| MGAVSAFSWASSGRLHALEVFVMKIPKTYDEIMEHFGGLIDEVTAELLESYAKGETVRVSEALAKSGRVAVEGVVLRVFPVRHFSKNGRSGKVGSVVIQDDCTVRVNFWNEAAEIIEAGDIVEGARIKVRGYARGEEIHVNSLSEVEVFVDFVNISELDEKVGERVNVKGFVSGLGEPEKANEIYISDETGRVKVLLENESLYYAVDIGSYVEIYNALAGEDGIYVDRNSRFSVGELEHHHHHH | failed |
| MGCDFAIAKDFLLFFLTKPISMKLSVIIPIYNEIQTIEKILKKITTVMPEIPKEIVMVDDGSKDGTREWLVDTFGDPEQHPVLANVNLAGKFQCFPLDQSAETNGDRQGNSFVMPKEWEVKVIFHRQNQGKGGALHTAFAAATGDVLIIQDADLEYDPEDWGPMWKLIDGGWADVVYGSRFYGNPHRVLYFHHYLGNKLITSLIDLVCNINLTDIEVCYKMFRREVLEDLRLTCNDFGFEVEFTMKVTRSPKRWRIYEVGVAYYGRTFAEGKKINWRDGVKALGYIAKFWLTNALEHHHHHH | failed |
| MGDEALVVDPLRFIDVYEQVAQQEGVTITHIVDSHLHADHLSGGKALAERTGAAYYLMKSEGAVFDFEPLEQHETIDFENVHLEVLAVKTPGHTPGSVSFFVNGKWLFSGDTIFVGGLGRPDLGGKVAEWAEDLYHTVYEKVAAMADDVIVLPAHYANLDEEINAEGYVGDTLGRIRARNEMMQNKAKDEFIDLVIQGLEHHHHHH | failed |
| MGDGAVKQGFLYLQQQQTFGKKWRRFGASLYGGSDCALARLELQEGPEKPRRCEAARKVIRLSDCLRVAEAGGEASSPRDTSAFFLETKERLYLLAAPAAERGDWVQAICLLAF | not failed |
| MGDNWRYEVKYDGFRTILFWTKETIRLESRNERLLTDQFPEIHDFCQRISNKVEAWLPITIDGELVHLVSPYRAHFAPIQTRSFMRKHETIAASSIKTPATLLAFDILELKGKTLVDLPYDERKKQLKALLKAIDVPLEHHHHHH | failed |
| MGDQRFDVLITGGTLVDVVTGELRPADIGIVGALIASVHEPASRRDAAQVIDAGGAYVSPGLIDTHMHIESSMITPAAYAAAVVARGVTTIVWDPHEFGNVHGVDGVRWAAKAIENLPLRAILLAPSCVPSAPGLERGGADFDAAILADLLSWPEIGGIAEIMNMRGVIERDPRMSGIVQAGLAAEKLVCGHARGLKNADLNAFMAAGVSSDHELVSGEDLMAKLRAGLTIELRGSHDHLLPEFVAALNTLGHLPQTVTLCTDDVFPDDLLQGGGLDDVVRRLVRYGLKPEWALRAATLNAAQRLGRSDLGLIAAGRRADIVVFEDLNGFSARHVLASGRAVAEGGRMLVDIPTCDTTVLKGSMKLPLRMANDFLVKSQGAKVRLATIDRPRFTQWGETEADVKDGFVVPPEGATMISVTHRHGMAEPTTKTGFLTGWGRWNGAFATTVSHDSHNLTVFGGNAGDMALAANAVIGTGGGMAVASEGKVTAILPLPLSGLVSDAPLEEVARAFEDLREAVGKVVEWQPPYLVFKACFGATLACNIGPHQTDMGIADVLTGKVMESPVIEVLEHHHHHH | failed |
| MGDSMSLDWDKLRIFHAAAEAGSFTHAADKLHLSQSAISRQVSSLEQDVGIKLFHRHARGLILTEQGEMLYRTAHDVLMKLESVKAQLSETTDKPSGKLRITTTVGLGQGWLTDKIQEFMSLYPEIQVQLILDNEELDVNMRHADCAIRLRQPQQSDLIQRKLFTVHMHVYAAPSYINKYGEPQSLDDLDNHRIITFGEPAPNYLLDVNWLEIAGRDSDNPRISHLQINSQTSIKRACLLGIGIAMLPDYIVGRDPGLIQLPISADIPSFDTYFCYPDELKNAAKLKVFRDYIVAKARNWNF | failed |
| MGDSPMNKNAKPDLAGTAALALDKGDPLLTPASVSQRDDARSQQPLGREALDVFVAWSIIGIFLIMSMAVIHELSMILMPVVMAVVVGMILGISAEKLASYGIPGAGVALILSTLVAAVIFFVVNSLIDPVSQLATEGPALIERSIDRFLPYVQNLRWLNISAATFSMGSMSMESLISRSGEIITLLGANVTPAIVQGLIFLAALLMFLYSRLRLRKALIMVFPARHQRLRTIRIIGSVEKVLGTYFATASLIYAALGVTMIVIAYVGGLSMPLLWGLFAFLSSFVPFLGITLMTISLTIAGIIAHDNMILALLPAGVFFTIHLLMENLAFPAVVGRNMEINPFLVFVMIIFWTWMWGAAGAMLALPLSLIAMTVTRELFPSRRVVPKLPD | failed |
| MGEMAPTLVLKNATYLNSVRGKWLDANIWIYQDRIVYVGQDMPAKLDDETEVVDCGQQVIVPGYIEHHAHPFQLYNPHSFANYAAAMGTTTLINDNLEHHHHHH | not failed |
| MGENNSHKHSLLFIVLISCAAGLGGLLYGYDTAVISGAIGFLKKLYNLSPAMQGFVISSIMVGGVLGVGFSGFLGDAIGRRKVLMLAAALFAISAVISSISTSAFMLIFARIVGGLGIGMASALSVTYITECAPPSIRGRLSSLYQLFTILGISITFFVNLGIVNMGSETWRVSTGWRYMLACGTVPAIVFLITLFFVPESPRFLVKSGNIKKAAAVLTKINGAEIAKQELDSISKSLATENDSSLGQLLQPGLRRALLIGIFLAIFNQAIGMNSITYYGPEIFQMIGFKNNSSFLATSVIGVVEVFSTILAMFLIDKLGRKKLMEIGSAAMAVFMLLIGTSFYIKLSNGFVILIFIICFVVSFCISMGPIPWIMIPEIFPNHLRARATGIATIFLWGANWAIGQFTPMLLNGIGGAYTFWIFCGINVICFLVVTTKVPETKNKSLEEIEKFWIPKSKQNAKGSSVGAK | failed |
| MGERIIPKNMKPMNGMLLEHLARYYFSTPYASGRVLDIACGTGYGSVMVAKTRKTEVDQVLGVDFDADVIHYAKQNYYHPKVSFLVGDAMDPYLRNQIGTFDTILSFETIEHVKDDRLFIERMRQLLKKDGTLVLSTPFGQGRGKPSDEPFHYHQLTEEEFRSLFDSFSEKEVFYQRGVTIEPKRTNVHYAFGVAVCKLEHHHHHH | failed |

Source: a protein production outcome set (Wang et al. 2014)
